Reference: ChEMBL document CHEMBL1212772

Experiments:
[1] = substrate: CC1(C)S[C@@H]2[C@H](NC(=O)Cc3ccccc3)C(=O)N2[C@H]1C(=O)O; test: (§1) Activity of Klebsiella pneumoniae SHV-1
[2] = substrate: C[C@@H](O)[C@H]1C(=O)N2C(C(=O)O)=C(SCCNC=N)C[C@H]12; test: as §1
[3] = substrate: C[C@@H](O)[C@H]1C(=O)N2C(C(=O)O)=C(S[C@@H]3CN[C@H](C(=O)N(C)C)C3)[C@H](C)[C@H]12; test: as §1
[4] = substrate: C[C@@H](O)[C@H]1C(=O)N2C(C(=O)O)=C(S[C@@H]3CN[C@H](CNS(N)(=O)=O)C3)[C@H](C)[C@H]12; test: as §1
[5] = substrate: O=C(Cc1cccs1)N[C@@H]1C(=O)N2C(C(=O)[O-])=C(C[n+]3ccccc3)CS[C@H]12; test: as §1
[6] = substrate: CC1(C)S[C@@H]2[C@H](NC(=O)Cc3ccccc3)C(=O)N2[C@H]1C(=O)O; test: (§2) Kcat/Km ratio of Klebsiella pneumoniae SHV-1
[7] = substrate: C[C@@H](O)[C@H]1C(=O)N2C(C(=O)O)=C(SCCNC=N)C[C@H]12; test: as §2
[8] = substrate: C[C@@H](O)[C@H]1C(=O)N2C(C(=O)O)=C(S[C@@H]3CN[C@H](C(=O)N(C)C)C3)[C@H](C)[C@H]12; test: as §2
[9] = substrate: C[C@@H](O)[C@H]1C(=O)N2C(C(=O)O)=C(S[C@@H]3CN[C@H](CNS(N)(=O)=O)C3)[C@H](C)[C@H]12; test: as §2
[10] = substrate: O=C(Cc1cccs1)N[C@@H]1C(=O)N2C(C(=O)[O-])=C(C[n+]3ccccc3)CS[C@H]12; test: as §2
[11] = substrate: CC(C)(O/N=C(\C(=O)N[C@@H]1C(=O)N2C(C(=O)[O-])=C(C[n+]3ccccc3)CS[C@H]12)c1csc(N)n1)C(=O)O; test: Activity of Pseudomonas aeruginosa SPM-1
[12] = substrate: CC(C)(O/N=C(\C(=O)N[C@@H]1C(=O)N2C(C(=O)[O-])=C(C[n+]3ccccc3)CS[C@H]12)c1csc(N)n1)C(=O)O; test: (§3) Activity of Acinetobacter baumannii OXA-23
[13] = substrate: CC1(C)S[C@@H]2[C@H](NC(=O)Cc3ccccc3)C(=O)N2[C@H]1C(=O)O; test: as §3
[14] = substrate: C[C@@H](O)[C@H]1C(=O)N2C(C(=O)O)=C(SCCNC=N)C[C@H]12; test: as §3
[15] = substrate: C[C@@H](O)[C@H]1C(=O)N2C(C(=O)O)=C(S[C@@H]3CN[C@H](C(=O)N(C)C)C3)[C@H](C)[C@H]12; test: as §3
[16] = substrate: C[C@@H](O)[C@H]1C(=O)N2C(C(=O)O)=C(S[C@@H]3CN[C@H](CNS(N)(=O)=O)C3)[C@H](C)[C@H]12; test: as §3
[17] = substrate: O=C(Cc1cccs1)N[C@@H]1C(=O)N2C(C(=O)[O-])=C(C[n+]3ccccc3)CS[C@H]12; test: as §3
[18] = substrate: CC(C)(O/N=C(\C(=O)N[C@@H]1C(=O)N2C(C(=O)[O-])=C(C[n+]3ccccc3)CS[C@H]12)c1csc(N)n1)C(=O)O; test: Kcat/Km ratio of Pseudomonas aeruginosa SPM-1
[19] = substrate: CC1(C)S[C@@H]2[C@H](NC(=O)Cc3ccccc3)C(=O)N2[C@H]1C(=O)O; settings: Acinetobacter baumannii
Description: (§8) Kcat/Km ratio of Acinetobacter baumannii OXA-23

[20] = substrate: C[C@@H](O)[C@H]1C(=O)N2C(C(=O)O)=C(SCCNC=N)C[C@H]12; settings: Acinetobacter baumannii
Description: as §8

[21] = substrate: C[C@@H](O)[C@H]1C(=O)N2C(C(=O)O)=C(S[C@@H]3CN[C@H](C(=O)N(C)C)C3)[C@H](C)[C@H]12; settings: Acinetobacter baumannii
Description: as §8

[22] = substrate: C[C@@H](O)[C@H]1C(=O)N2C(C(=O)O)=C(S[C@@H]3CN[C@H](CNS(N)(=O)=O)C3)[C@H](C)[C@H]12; settings: Acinetobacter baumannii
Description: as §8

[23] = substrate: O=C(Cc1cccs1)N[C@@H]1C(=O)N2C(C(=O)[O-])=C(C[n+]3ccccc3)CS[C@H]12; settings: Acinetobacter baumannii
Description: as §8

Pseudomonas aeruginosa [24] = test: Activity of Pseudomonas aeruginosa SPM-1
Pseudomonas aeruginosa [25] = test: Kcat/Km ratio of Pseudomonas aeruginosa SPM-1
[26] = substrate: CC(C)(O/N=C(\C(=O)N[C@@H]1C(=O)N2C(C(=O)[O-])=C(C[n+]3ccccc3)CS[C@H]12)c1csc(N)n1)C(=O)O; test: (§4) Activity of Pseudomonas aeruginosa IMP-1
[27] = substrate: CC1(C)S[C@@H]2[C@H](NC(=O)Cc3ccccc3)C(=O)N2[C@H]1C(=O)O; test: as §4
[28] = substrate: C[C@@H](O)[C@H]1C(=O)N2C(C(=O)O)=C(SCCNC=N)C[C@H]12; test: as §4
[29] = substrate: C[C@@H](O)[C@H]1C(=O)N2C(C(=O)O)=C(S[C@@H]3CN[C@H](C(=O)N(C)C)C3)[C@H](C)[C@H]12; test: as §4
[30] = substrate: C[C@@H](O)[C@H]1C(=O)N2C(C(=O)O)=C(S[C@@H]3CN[C@H](CNS(N)(=O)=O)C3)[C@H](C)[C@H]12; test: as §4
[31] = substrate: O=C(Cc1cccs1)N[C@@H]1C(=O)N2C(C(=O)[O-])=C(C[n+]3ccccc3)CS[C@H]12; test: as §4
[32] = substrate: CC(C)(O/N=C(\C(=O)N[C@@H]1C(=O)N2C(C(=O)[O-])=C(C[n+]3ccccc3)CS[C@H]12)c1csc(N)n1)C(=O)O; test: (§5) Kcat/Km ratio of Pseudomonas aeruginosa IMP-1
[33] = substrate: CC1(C)S[C@@H]2[C@H](NC(=O)Cc3ccccc3)C(=O)N2[C@H]1C(=O)O; test: as §5
[34] = substrate: C[C@@H](O)[C@H]1C(=O)N2C(C(=O)O)=C(SCCNC=N)C[C@H]12; test: as §5
[35] = substrate: C[C@@H](O)[C@H]1C(=O)N2C(C(=O)O)=C(S[C@@H]3CN[C@H](C(=O)N(C)C)C3)[C@H](C)[C@H]12; test: as §5
[36] = substrate: C[C@@H](O)[C@H]1C(=O)N2C(C(=O)O)=C(S[C@@H]3CN[C@H](CNS(N)(=O)=O)C3)[C@H](C)[C@H]12; test: as §5
[37] = substrate: O=C(Cc1cccs1)N[C@@H]1C(=O)N2C(C(=O)[O-])=C(C[n+]3ccccc3)CS[C@H]12; test: as §5
[38] = substrate: C[C@@H](O)[C@H]1C(=O)N2C(C(=O)O)=C(S[C@@H]3CN[C@H](C(=O)N(C)C)C3)[C@H](C)[C@H]12; test: (§6) Activity of Escherichia coli TEM-1
[39] = substrate: C[C@@H](O)[C@H]1C(=O)N2C(C(=O)O)=C(S[C@@H]3CN[C@H](CNS(N)(=O)=O)C3)[C@H](C)[C@H]12; test: as §6
[40] = substrate: C[C@@H](O)[C@H]1C(=O)N2C(C(=O)O)=C(S[C@@H]3CN[C@H](C(=O)N(C)C)C3)[C@H](C)[C@H]12; test: (§7) Kcat/Km ratio of Escherichia coli TEM-1
[41] = substrate: C[C@@H](O)[C@H]1C(=O)N2C(C(=O)O)=C(S[C@@H]3CN[C@H](CNS(N)(=O)=O)C3)[C@H](C)[C@H]12; test: as §7

B1: Beta-lactamase SHV-1 (Klebsiella pneumoniae), P0AD64 (protein)
chain: MRYIRLCIISLLATLPLAVHASPQPLEQIKLSESQLSGRVGMIEMDLASGRTLTAWRADERFPMMSTFKVVLCGAVLARVDAGDEQLERKIHYRQQDLVDYSPVSEKHLADGMTVGELCAAAITMSDNSAANLLLATVGGPAGLTAFLRQIGDNVTRLDRWETELNEALPGDARDTTTPASMAATLRKLLTSQRLSARSQRQLLQWMVDDRVAGPLIRSVLPAGWFIADKTGAGERGARGIVALLGPNNKAERIVVIYLRDTPASMAERNQQIAGIGAALIEHWQR
- kcat [1]: 1100 s⁻¹
- Km [2]: 23 µM
- kcat [2]: 0.054 s⁻¹
- Km [3]: 4.2 µM
- kcat [3]: 0.0017 s⁻¹
- Km [4]: 4.3 µM
- kcat [4]: 0.003 s⁻¹
- kcat [5]: 410 s⁻¹
- kcat/Km [6]: 6.9e+07 M⁻¹ s⁻¹
- kcat/Km [7]: 2400 M⁻¹ s⁻¹
- kcat/Km [8]: 400 M⁻¹ s⁻¹
- kcat/Km [9]: 700 M⁻¹ s⁻¹
- kcat/Km [10]: 2.6e+06 M⁻¹ s⁻¹

B2: Beta-lactamase OXA-23 (Acinetobacter baumannii), Q9L4P2 (protein)
chain: MNKYFTCYVVASLFLSGCTVQHNLINETPSQIVQGHNQVIHQYFDEKNTSGVLVIQTDKKINLYGNALSRANTEYVPASTFKMLNALIGLENQKTDINEIFKWKGEKRSFTAWEKDMTLGEAMKLSAVPVYQELARRIGLDLMQKEVKRIGFGNAEIGQQVDNFWLVGPLKVTPIQEVEFVSQLAHTQLPFSEKVQANVKNMLLLEESNGYKIFGKTGWAMDIKPQVGWLTGWVEQPDGKIVAFALNMEMRSEMPASIRNELLMKSLKQLNII
- Km [11]: 120 µM
- kcat [11]: 77 s⁻¹
- kcat [12]: < 0.0042 s⁻¹
- Km [13]: 13 µM
- kcat [13]: 530 s⁻¹
- Km [14]: 1.3 µM
- kcat [14]: 0.92 s⁻¹
- Km [15]: 2.5 µM
- kcat [15]: 0.13 s⁻¹
- Km [16]: 1.8 µM
- kcat [16]: 0.2 s⁻¹
- Km [17]: 1300 µM
- kcat [17]: 450 s⁻¹
- kcat/Km [18]: 640000 M⁻¹ s⁻¹
- kcat/Km [19]: 4.1e+07 M⁻¹ s⁻¹
- kcat/Km [20]: 50000 M⁻¹ s⁻¹
- kcat/Km [21]: 52000 M⁻¹ s⁻¹
- kcat/Km [22]: 110000 M⁻¹ s⁻¹
- kcat/Km [23]: 350000 M⁻¹ s⁻¹
- Km (Pseudomonas aeruginosa [24]): 82 µM
- kcat (Pseudomonas aeruginosa [24]): 45 s⁻¹
- kcat/Km (Pseudomonas aeruginosa [25]): 550000 M⁻¹ s⁻¹

B3: Beta-lactamase IMP-1 (Pseudomonas aeruginosa), Q8G9Q0 (protein)
chain: MNSPKSRALLGFMGAFCLLLVAGAPLSAKSSDHVDLPYNLTATKIDSDVFVVTDRDFYSSNVLVAKMLDGTVVIVSSPFENLGTQTLMDWVAKTMKPKKVVAINTHFHLDGTGGNEIYKKMGAETWSSDLTKQLRLEENKKDRIKAAEFYKNEDLKRRILSSHPVPADNVFDLKQGKVFSFSNELVEVSFPGPAHSPDNVVVYFPKKKLLFGGCMIKPKELGYLGDANVKAWPDSARRLKKFDAKIVIPGHGEWGGPEMVNKTIKVAEKAVGEMRL
- Km [26]: 50 µM
- kcat [26]: 37 s⁻¹
- Km [27]: 550 µM
- kcat [27]: 1400 s⁻¹
- Km [28]: 33 µM
- kcat [28]: 190 s⁻¹
- Km [29]: 6.5 µM
- kcat [29]: 26 s⁻¹
- Km [30]: 30 µM
- kcat [30]: 110 s⁻¹
- Km [31]: 21 µM
- kcat [31]: 270 s⁻¹
- kcat/Km [32]: 740000 M⁻¹ s⁻¹
- kcat/Km [33]: 2.5e+06 M⁻¹ s⁻¹
- kcat/Km [34]: 5.8e+06 M⁻¹ s⁻¹
- kcat/Km [35]: 4e+06 M⁻¹ s⁻¹
- kcat/Km [36]: 3.7e+06 M⁻¹ s⁻¹
- kcat/Km [37]: 1.3e+07 M⁻¹ s⁻¹

B4: Beta-lactamase TEM (Escherichia coli), P62593 (protein)
chain: MSIQHFRVALIPFFAAFCLPVFAHPETLVKVKDAEDQLGARVGYIELDLNSGKILESFRPEERFPMMSTFKVLLCGAVLSRVDAGQEQLGRRIHYSQNDLVEYSPVTEKHLTDGMTVRELCSAAITMSDNTAANLLLTTIGGPKELTAFLHNMGDHVTRLDRWEPELNEAIPNDERDTTMPAAMATTLRKLLTGELLTLASRQQLIDWMEADKVAGPLLRSALPAGWFIADKSGAGERGSRGIIAALGPDGKPSRIVVIYTTGSQATMDERNRQIAEIGASLIKHW
- Km [38]: 15 µM
- kcat [38]: 0.00023 s⁻¹
- Km [39]: 5.4 µM
- kcat [39]: 0.00021 s⁻¹
- kcat/Km [40]: 15 M⁻¹ s⁻¹
- kcat/Km [41]: 39 M⁻¹ s⁻¹
